Legend:
Test in all cases: SPR
[1] = target: T1, AML1 Runt domain (UniProt Q01196 1-188)
[2] = target: AML1 Runt domain V170A (UniProt Q01196 1-188, V170A)
[3] = target: T1, AML1 Runt domain; remark: listed apart in the source

T1 sequence (Q01196 1-188): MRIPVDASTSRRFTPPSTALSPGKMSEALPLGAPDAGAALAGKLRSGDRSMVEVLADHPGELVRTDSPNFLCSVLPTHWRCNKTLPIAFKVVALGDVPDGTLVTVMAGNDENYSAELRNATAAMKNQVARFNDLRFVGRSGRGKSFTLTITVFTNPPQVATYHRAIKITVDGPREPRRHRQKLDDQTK
Chain of AML1 Runt domain V170A (Q01196 1-188 V170A): as the sequence (Q01196 1-188) above, with V170A counted along it

Binder	binding result [1]	other results
GGGAUGGACGACCCACCACGGCGAGGUAUCCCAUCCC (structured_RNA) [Apt1-S]	–	Kd [1]: 0.99 ± 0.02 nM; binding result [2]: binds
GGGAUGGACGACCCACGAAAGCGAGGUAUCCCAUCCC (structured_RNA) [Apt1-S GAAA loop]	binds	–
GGGAUGGACGAGCCACCACGGCGAGCUAUCCCAUCCC (structured_RNA) [Apt1-S C12G-G26C]	binds	–
GGGAUGGACGACCCACCACGGCGCGGUAUCCCAUCCC (structured_RNA) [Apt1-S A24C]	binds	–
GGGAUGGACGACCCACCACGGCGUGGUAUCCCAUCCC (structured_RNA) [Apt1-S A24U]	binds	–
GGGAUGGACGACCCACUUUUGCGAGGUAUCCCAUCCC (structured_RNA) [Apt1-S UUUU loop]	binds	–
RDE (dsDNA) DNA 1: GTCGTTTGCGGTTTGGGGAAAAAAAAAAAAAAAAA DNA 2: TCCCCAAACCGCAAACGAC	–	Kd [1]: 9.6 ± 0.2 nM; binding result [2]: binds
Apt1-S double-stranded (1-18 / 19-37) (dsRNA) RNA 1: GGGAUGGACGACCCACCA RNA 2: CGGCGAGGUAUCCCAUCCC	–	binding signal [3]: ~20 fold reduction in affinity vs Apt1-S

From PMC3683927
